Test results from publication PMC11385924.

How the values were obtained:
[1] = system: Km-AP23 (artificial (CPDiffusion design on KmAgo backbone)); experiment: fluorescence polarization; settings: FP: 5 nM FAM-DNA, 0-1500 nM protein, 15 mM Tris-HCl pH 7.4, 200 mM NaCl, 5 mM MnCl2, 37 C, 1 h, EMSA: 1 uM FAM-guide, 2 uM protein
[2] = system: KmAgo (Km-WT) (Kurthia massiliensis); experiment: fluorescence polarization; settings: FP: 5 nM FAM-DNA, 0-1500 nM protein, 15 mM Tris-HCl pH 7.4, 200 mM NaCl, 5 mM MnCl2, 37 C, 1 h, EMSA: 1 uM FAM-guide, 2 uM protein

Substance | Kd [1] | Kd [2]
gDNA (guide DNA) | 17 nM | 65.9 nM
tDNA (target DNA) | 29.5 nM | 70 nM
